In US20090240037A1 (IMMUNOMEDICS, published 2009):
Substitutions are numbered along the chain they refer to.

Assays:
[1] = biological target: CD20 (human B lymphocyte-restricted differentiation antigen Bp35) on Raji cells (human) (UniProt P11836); experiment: cell surface competitive binding on Raji cells, 4 C, 1-2 h; competitor tracer 125I-labeled rituximab; column head IC50 nM
[2] = biological target: CD20 (human B lymphocyte-restricted differentiation antigen Bp35) on Raji cells (human) (UniProt P11836); experiment: cell surface competitive binding on Raji cells; unlabeled murine A20 against tracer 125I-labeled murine A20
[3] = biological target: CD20 (human B lymphocyte-restricted differentiation antigen Bp35) on Raji cells (human) (UniProt P11836); experiment: cell surface competitive binding on Raji cells, 4 C, 1-2 h; unlabeled murine A20 against tracer 125I-labeled murine A20
[4] = biological target: CD20 (human B lymphocyte-restricted differentiation antigen Bp35) on Raji cells (human) (UniProt P11836); experiment: cell surface competitive binding on Raji cells, 4 C, 1-2 h; unlabeled rituximab against tracer 125I-labeled c2B8/rituximab
[5] = biological target: CD20 (human B lymphocyte-restricted differentiation antigen Bp35) on Raji cells (human) (UniProt P11836); experiment: staining of NHL cell lines (Raji, Ramos, RL, Daudi, Su-DHL-6)
[6] = biological target: CD20 (human B lymphocyte-restricted differentiation antigen Bp35) on Raji cells (human) (UniProt P11836); experiment: cell surface competitive binding on Raji cells, 4 C, 1-2 h; unlabeled rituximab against tracer 125I-labeled rituximab; column head IC50 nM
[7] = biological target: CD20 (human B lymphocyte-restricted differentiation antigen Bp35) on Raji cells (human) (UniProt P11836); experiment: direct binding of radiolabeled MAb to Raji cells, Scatchard plot analysis
[8] = biological target: T1, CD20 (human B lymphocyte-restricted differentiation antigen Bp35) on Raji cells (human, UniProt P11836 1-297); experiment: cell surface competitive binding on Raji cells; competitor tracer 125I-labeled murine A20
T1 construct: whole, on cells; The assays name the cells (Raji, Ramos, RL, Daudi, Su-DHL-6); also called CD20 antigen; hCD20
T1 sequence (looked up): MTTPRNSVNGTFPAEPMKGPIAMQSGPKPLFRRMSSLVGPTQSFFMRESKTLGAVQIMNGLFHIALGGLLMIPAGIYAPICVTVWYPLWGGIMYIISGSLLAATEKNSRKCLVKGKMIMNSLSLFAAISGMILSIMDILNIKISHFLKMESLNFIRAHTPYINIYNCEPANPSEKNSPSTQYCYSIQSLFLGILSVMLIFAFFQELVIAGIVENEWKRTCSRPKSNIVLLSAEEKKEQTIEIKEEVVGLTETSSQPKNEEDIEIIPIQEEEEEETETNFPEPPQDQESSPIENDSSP
Method: (§1) Unbound Abs were removed by washing the cells in PBS. The radioactivity associated with cells was determined after washing.

[9] = biological target: T1, CD20 (human B lymphocyte-restricted …); experiment: direct binding of radiolabeled MAb to Raji cells, Scatchard plot analysis
[10] = biological target: T1, CD20 (human B lymphocyte-restricted …); experiment: cell surface competitive binding on Raji cells, 4 C, 1-2 h; competitor tracer 125I-labeled c2B8/rituximab
[11] = biological target: T1, CD20 (human B lymphocyte-restricted …); experiment: cell surface competitive binding on Raji cells, 4 C, 1-2 h; competitor tracer 125I-labeled murine 2B8
Method: (§2) Unbound Abs were removed by washing the cells with PBS. Radioactivity associated with the cells was determined after washing.

[12] = biological target: T1, CD20 (human B lymphocyte-restricted …); experiment: cell surface competitive binding on Raji cells, 4 C, 1-2 h; competitor tracer 125I-labeled rituximab
Method: as §2

[13] = biological target: T2, soluble CEA (Scripps Laboratories) (UniProt P06731 35-685, limits assumed); experiment: competitive ELISA; antigen not given, CEA per paragraph 119
T2 construct: Coated at 0.5 ug/well in the ELISA; also injected as soluble analyte in BIAcore
T2 sequence (looked up): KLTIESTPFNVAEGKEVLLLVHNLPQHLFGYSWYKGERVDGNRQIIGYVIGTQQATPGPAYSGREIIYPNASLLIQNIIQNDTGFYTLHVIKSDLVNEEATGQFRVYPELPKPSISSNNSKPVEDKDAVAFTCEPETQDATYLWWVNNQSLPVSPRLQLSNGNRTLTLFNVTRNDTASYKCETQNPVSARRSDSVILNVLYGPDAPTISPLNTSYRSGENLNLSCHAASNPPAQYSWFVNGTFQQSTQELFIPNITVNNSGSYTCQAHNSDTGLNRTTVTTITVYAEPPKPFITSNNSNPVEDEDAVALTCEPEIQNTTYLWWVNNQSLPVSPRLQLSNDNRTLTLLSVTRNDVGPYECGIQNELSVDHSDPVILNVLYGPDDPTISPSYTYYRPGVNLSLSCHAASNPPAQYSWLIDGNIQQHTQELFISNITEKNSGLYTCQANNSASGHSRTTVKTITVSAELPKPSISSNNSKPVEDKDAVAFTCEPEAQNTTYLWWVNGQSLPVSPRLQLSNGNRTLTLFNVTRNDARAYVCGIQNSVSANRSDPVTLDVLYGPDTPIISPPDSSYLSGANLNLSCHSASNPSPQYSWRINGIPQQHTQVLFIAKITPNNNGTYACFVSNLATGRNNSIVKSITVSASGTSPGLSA

[14] = biological target: T2, soluble CEA (Scripps Laboratories); experiment: competitive ELISA on CEA-coated wells (0.5 ug/well); competitor HRP-conjugated hMN14 IgG, 1 nM
Method: FIG. 15 is a graphical representation of the results of a competitive enzyme-linked immunosorbent assay (ELISA). […] The % inhibition is plotted vs. nM concentration of sample.
Microtiter plates were coated with 0.5 μg/well with soluble CEA (Scripps Laboratories).

[15] = biological target: T2, soluble CEA (Scripps Laboratories); experiment: ELISA on CEA
[16] = biological target: T1, CD20 (human B lymphocyte-restricted …); experiment: cell surface competitive binding on Raji cells, 4 C, 1-2 h; competitor tracer 125I-labeled rituximab; column head IC50 nM
Method: as §2

[17] = biological target: T1, CD20 (human B lymphocyte-restricted …); experiment: cell surface competitive binding on Raji cells, 4 C, 1-2 h; competitor tracer 125I-labeled murine A20
Method: as §1

Molecule: murine B1 anti-CD20 antibody
- IC50 [1]: 34 nM

Molecule: A20, murine anti-CD20 MAb (antibody)
- IC50 (read off the curve) [2]: 20 nM
- IC50 (read off the curve) [3]: 4 nM

Molecule: rituximab (IDEC Pharmaceuticals Corp.) (antibody)
- IC50 (read off the curve) [4]: 7 nM
- percent of cells stained [5]: > 99%
- IC50 [6]: 5 nM

Molecule: hA20, humanized anti-CD20 antibody (variant hA20-1 or hA20-2 not specified)
- percent of cells stained [5]: > 99%
- Kd [7]: 4.2 nM

B1: cA20, chimeric anti-CD20 antibody (antibody, V domains shown)
VH: QVQLQQPGAELVKPGASVKMSCKASGYTFTSYNMHWVKQTPGRGLEWIGAIYPGNGDTSYNQKFKGKATLTADKSSSTAYMQLSSLTSEDSAVYYCARSTYYGGDWYFDVWGQGTTVTVSS
VL: DIQLTQSPAILSASPGEKVTMTCRASSSVSYIHWFQQKPGSSPKPWIYATSNLASGVPVRFSGSGSGTSYSLTISRVEAEDAATYYCQQWTSNPPTFGGGTKLEIK
notes: Murine A20 variable domains with human constant regions; expressed in Sp2/0 cells; also called chimeric A20
- IC50 (read off the curve) [8]: ~10 nM
- Kd [9]: 2.9 nM
- IC50 (read off the curve) [10]: ~6 nM
- IC50 (read off the curve) [11]: ~9 nM
- IC50 (read off the curve) [12]: ~9 nM

B2: hMN14 diabody (hMN14-scFv-L5) (scFv)
scFv: MEVQLVESGGGVVQPGRSLRLSCSASGFDFTTYWMSWVRQAPGKGLEWIGEIHPDSSTINYAPSLKDRFTISRDNAKNTLFLQMDSLRPEDTGVYFCASLYFGFPWFAYWGQGTPVTVSGGGGSDIQLTQSPSSLSASVGDRVTITCKASQDVGTSVAWYQQKPGKAPKLLIYWTSTRHTGVPSRFSGSGSGTDFTFTISSLQPEDIATYYCQQYSLYRSFGQGTKVEIKRLEHHHHHH
modifications: Non-covalent homodimer (diabody) of two copies of this chain.
notes: Non-covalent homodimer of the scFv; the pelB leader is removed in the mature polypeptide; One codon before the VH and two between the VK and the tag are not spelled out in the text
- binding result [13]: binds

B3: BS1.5 (679 x hMN14 bispecific diabody: variant 2) (bispecific antibody)
chain 1: MEVQLVESGGDLVKPGGSLKLSCAASGFTFSIYTMSWLRQTPEKRLEWVATLSGDGDDIYYPDSVKGRFTISRDNAKNNLYLQMNSLRSADTALYYCARVRLGDWDFDVWGQGTTVSVSSGGGGSDIQLTQSPSSLSASVGDRVTITCKASQDVGTSVAWYQQKPGKAPKLLIYWTSTRHTGVPSRFSGSGSGTDFTFTISSLQPEDIATYYCQQYSLYRSFGQGTKVEIKRLEHHHHHH
chain 2: MEVQLVESGGGVVQPGRSLRLSCSASGFDFTTYWMSWVRQAPGKGLEWIGEIHPDSSTINYAPSLKDRFTISRDNAKNTLFLQMDSLRPEDTGVYFCASLYFGFPWFAYWGQGTPVTVSGGGGSDIVMSQSPSSLAVSPGEKVTMTCKSSQSLFNSRTRKNYLGWYQQKPGQSPKLLIYWASTRESGVPDRFTGSGSGTDFTLTINSVQSEDLAVYYCTQVYYLCTFGAGTKLELKRLEHHHHHH
notes: Heterodimer of the two polypeptides; pelB leaders removed; copies: 1 + 1
- binding result [14]: binds

B4: BS2 (679 x hMN14 bispecific diabody: variant 3) (bispecific antibody)
chain 1: B3 chain 1
chain 2: B3 chain 2 with C225S
notes: as for B3
- binding result [15]: binds

B5: BS1 (679 x hMN14 bispecific diabody: variant 1) (bispecific antibody)
chain 1: B3 chain 1 with Q4I
chain 2: B3 chain 2
notes: as for B3
- binding result [15]: binds

B6: hA20-1, humanized anti-CD20 antibody (hA20VH1 + hA20Vk) (antibody, human IgG1, V domains shown)
VH: QVQLQQSGAEVKKPGSSVKVSCKASGYTFTSYNMHWVKQAPGQGLEWIGAIYPGNGDTSYNQKFKGKATLTADESTNTAYMELSSLRSEDTAFYYCARSTYYGGDWYFDVWGQGTTVTVSS
VL: DIQLTQSPSSLSASVGDRVTMTCRASSSVSYIHWFQQKPGKAPKPWIYATSNLASGVPVRFSGSGSGTDYTFTISSLQPEDIATYYCQQWTSNPPTFGGGTKLEIKR
- IC50 [16]: 6.8 nM
- IC50 (read off the curve) [10]: ~9 nM
- IC50 (read off the curve) [11]: ~10 nM
- IC50 (read off the curve) [17]: ~4 nM

B7: hA20-2, humanized anti-CD20 antibody (hA20VH2 + hA20Vk) (antibody, human IgG1, V domains shown)
VH: B6 VH with T30S, K38R, I48M, K67R, L70I, Y95F
VL: B6 VL
- IC50 (read off the curve) [11]: ~10 nM
- IC50 (read off the curve) [17]: ~4 nM
